B1: RANTES: natural ligand of CCR5 (protein, UniProt P13501 24-91, looked up)
C-C motif chemokine 5: SPYSSDTTPCCFAYIARPLPRAHIKEYFYTSGKCSNPAVVFVTRKNRQVCANPEKKWVREYINSLEMS
B2: MIP-1α: natural ligand of CCR5 (protein, UniProt P10147 24-92, looked up)
C-C motif chemokine 3: SLAADTPTACCFSYTSRQIPQNFIADYFETSSQCSKPGVIFLTKRSRQVCADPSEEWVQKYVSDLELSA
B3: MIP-1β: natural ligand of CCR5 (protein, UniProt P13236 24-92, looked up)
C-C motif chemokine 4: APMGSDPPTACCFSYTARKLPRNFVVDYYETSSLCSQPAVVFQTKRSKQVCADPSESWVQEYVYDLELN
modifications: ends and bridges not checked
notes: natural ligand of CCR5

tested on: HT-29 cells; test: Calcium signaling in HT-29 cells (Fluo 4, confocal microscope); format: cell-based, human
Method: HT-29 cells (from ATCC) were grown in DMEM-F12 with 10% bovine calf serum, and were used 24-48 hours after plating. The Ghost (3) cells were obtained from the AIDS Research and Reference Reagent Program, and were grown DMEM with 10% bovine calf serum supplemented with 500 μg/ml G418, 100 μg/ml hygromycin, and 1 μg/ml puromycin.^27 These cells were used 24 to 96 hours after plating.
Calcium studies were done on HT-29 cells and Ghost (3) cells loaded with Fluo 4. The cells were placed in Locke's buffer containing 5 μg/ml Fluo 4 AM ester (Molecular Probes) for 20 to 30 minutes, then in Locke's buffer for an additional 30 minutes before testing. Various concentrations of gp120IIIB (X4 trophic), gp120CM235 (R5 trophic), gp120mN (X4 trophic), gp12093TH975 (nonsyncytium-inducing primary isolate from an asymptomatic subject, trophism undetermined but likely R5), and gp120SF2 (X4R5 trophic), ranging from 10 nM to less than 1 pM, were added in Locke's buffer.^6 The gp120 proteins were obtained from the AIDS Research Reagent Referral Program. Some HT-29 cells were given one of the following pretreatments: 50 μg/ml anti-Bob37 overnight, 1 μg/ml pertussis toxin overnight, or 4.6 μg/ml U73122 for one hour. With the HT-29 cells only, similar tests were also performed with SDF-1, MIP-1α, MIP-1β, and RANTES rather than gp120. The cells were visualized every 4 seconds in a confocal microscope, using 488 nm argon laser excitation and detection filters appropriate for fluorescein-like dyes.
For the first two or three days after plating, gp120 induces an immediate (within 4 seconds) calcium flux in undifferentiated HT-29 cells. The cells had previously been loaded with Fluo-4 AM ester (Molecular Probes, Eugene Oreg.) 5 micrograms/ml in the presence of Pleuronic F-127 0.02% in Locke's buffer for 30 minutes, then incubated at room temperature for an additional 30 minutes. Gp120IIIB was added while the cells were on an inverted confocal microscope using a 488 nm argon laser, with detection filters suitable for fluorescein-like dyes. […]

Row | Molecule | calcium signaling in HT-29 cells, in words
1 | B1 | induced similar calcium signaling
2 | B2 | induced similar calcium signaling
3 | B3 | induced similar calcium signaling
